The DeepSol protein solubility set

assay: soluble on expression in E. coli; label from the status in PepcDB or PDB records

| Sequence | soluble on expression in E. coli |
| --- | --- |
| MKQVAVISGKGGTGKTTFSATIHALEGGVVADCDVDAPNLHILLKPQILKAEDFIASKKARIMPEKCSSCGLCYDLCRFGAVVAEDGYYVDEKKCEGCAFCFNVCPERAIEMENVKTGDLYVSKTEWGYFVHARLKPGEENTGRLVTEVKNRAKEIAEESNAEFLIVDSAPGVGCPVMASLTGVDAAIIVTEPTVSGLSDMLRILELCEHFRIRPFVVVNKFDLNVNIASEIESYCSENGVEFAGRVPFDKAIPEQIANLNFPFSGKAADKMVEIWKKLREVLLEHHHHHH | soluble |
| MKRDARDAPKSITLGFEADCVTLPIDAILPLRALGKSAKSSRKYRQIAASIAQIGIVEPPVVVRNPDRSATWLLLDGHMRIEALKDAGGSEVECLVSTDDEAFTYNRQISRLAPIQEHKMIRKAIERGVPEEKIALALDLNMSSIRRKARLLDGICEEAVAILKDKPCTNAVFDALRKMRTMRQIEAAELLVNANNYSVAYVNAILAGTPQAQLVESSKPKKVKGITPDAMARMEQELARLQEGIASIQDTYGEDHLHLTVIKGYVGKLLGNARVVRYLAQNHPEFLGEFQTITEITPAEADAAE | not soluble |
| MKRDKEVSINKKDPFSVLIMGVDERDGDKGRADTLIYMTVNPKTNTTDMVSIPRDTYTKIIGKGTMDKINHSYAFGGTQMTVDTVENFLDVPVDYFVKVNMESFRDVVDTLGGITVNSTFAFSYDGYSFGKGEITLNGKEALAYTRMRKEDPRGDFGRQDRQRQVIQGIINKGANISSITKFGDMFKVVENNVKTNLTFDNMWDIQSDYKGARKHIKQHELKGTGTKINGIYYYQADESALSDITKELKESLEKLEHHHHHH | soluble |
| MKRIITLTVVNRSGVLNRITGLFTKRHYNIESITVGHTETAGVSRITFVVHVEGENDVEQLTKQLNKQIDVLKVTDITNQSIVQRELALIKVVSAPSTRTEINGIIEPFRASVVDVSRDSIVVQVTGESNKIEALIELLKPYGIKEIARTGTTAFARGTSKRRHPIKQYLLYKTLEHHHHHH | soluble |
| MKRILCITGTRADFGKLKPLLAYIENHPDLELHLIVTGMHMMKTYGRTYKEVTRENYQHTYLFSNQIQGEPMGAVLGNTITFISRLSDEIEPDMVMIHGDRLEALAGAAVGALSSRLVCHIEGGELSGTVDDSIRHSISKLSHIHLVANEQAVTRLVQMGEKRKHIHIIGSPDLDVMASSTLPSLEEVKEYYGLPYENYGISMFHPVTTEAHLMPQYAAQYFKALELSGQNIISIYPNNDTGTESILQELLKYQSDKFIAFPSIRFEYFLVLLKHAKFMVGNSSAGIREAPLYGVPSIDVGTRQSNRHMGKSIIHTDYETKNIFDAIQQACSLGKFEADDTFNGGDTRTSTERFAEVINNPETWNVSAQKRFIDLNL | not soluble |
| MKRLIICNGNKLTVCTQAISSGGIVEKYTPIFSLTKESDNELTLELSGVARGYYIIPSELTSSQARAAHLITLLTRAEESQTTDMHKILNSFVSGKITSGSMFNFENDGSFKREPEEAYNLINKI | not soluble |
| MKRLLFLGVDVGGTKTLAVLSDEQGNVLAIYKGKGANYQVVGKENAVRNLKDVIEAILDRAGKTRKEIDFAFFGYAGADFDYEMKIVREILEKLGLEKFDFDNDGRIALRSGVFDDIGIMVSCGTGSISYASDGRRVNRIGGLSFSLGERLGSHYIASLVTSAVMRAKDGRDDWTTLVDEVEKEIGPVENLLRYDYEGGYTAELVKKVNQALFRCAEKGDAVSLRIFDEIVVEVKKIIDAHRKALNFTPPIKLILEGSFFKNAPSLLINMIESAIGREYEIVIPEHDPVIGAVLFAMERVGLRVTEDLYNRLVRNYLREVKK | soluble |
| MKRQLFTVLVCMTMFAVASCGEKKGKDKFEERIEKAKESVEDVVDDAKDQIEDKADEVGETLDKAKSKIEKAKKKLDEANRD | not soluble |
| MKRQWALEDFEIGRPLGKGKFGNVYLAREKQSKFILALKVLFKAQLEKAGVEHQLRREVEIQSHLRHPNILRLYGYFHDATRVYLILEYAPLGTVYRELQKLSKFDEQRTATYITELANALSYCHSKRVIHRDIKPENLLLGSAGELKIADFGWSVHAPSSRRTDLCGTLDYLPPEMIEGRMHDEKVDLWSLGVLCYEFLVGKPPFEANTYQETYKRISRVEFTFPDFVTEGARDLISRLLKHNPSQRPMLREVLEHPWITANSSKPSNCQNKESAAAALEHHHHHH | soluble |
| MKRTKKEFTPYNEYHDRPFELKWATAFALGELQEGIEASDEYSKRAFERLPQQTTEEIEEYLEQSLKNNQVLEIQLNTLDDFGRVQPPIVGVFEGMSSMEYVKVGHTHILFEEIRHIKSHEFTKWSSLD | not soluble |
| MKRYPRDMRGHGPTPPDAAWPGGARIAVSIVLNYEEGGENCLLHGDAQSEAFLSDIAGAQPWPGQRHWNMESIYDYGARAGFWRLHRLFTGLNIPVTVYGVATALARSPEQVAAMKSAGWEIASHGLKWVEHRDMPEEEERRQIAEAIRLHAEVVGERPRGWYTGRCSVNTVRLTAEEGGFDWISDTYDDDQPYWLETGTRDQLVIPYTLEANDMRFATAPGYIEGEQFFTYLRDSFDTLYAEGCAGQAKMFSIGLHCRLIGRPGKIAGLKRFLDYARTHERVWFPCRGDIARHWHETHPHRRRPRPSRMDRESFVAHFGGIYEHSPWIAERAFELELGPAHDSPAGLANALARIFRSATPAERLSVLKAHPDLAGKLAQARRLTASSSFEQSSAGLDALTDAERAEFATLNADYVAKHGFPFIIAVRDHDKAGILAAFETRLAHDSATEFATACRQVERIAELRLQDMLKLEHHHHHH | not soluble |
| MKSACSIITASIVLYKSKPDIIRDVITSFFSDTVTKKKLILIDNSPTDSLRVLQEERPEDIQYFFNNRNIGFGSAHNIGIREAARFNPSYHLILNPDVQFGPEVVPTLASYMDENPDIGLLMPQVYYPNGELQHLCKLFPRPWDVMLRRFVPYRSYRERNNERFELRNWSYDTIQDIPSLSGCFMFARMDILREVGGFDERFFMYAEDLDLCRRIGQVSRTVFFPKVSIMHTYAKGSYHLEHHHHHH | soluble |
| MKSAELKYLDFEDFTKLIALAKEKINPIYSSSFMIYIAAMTGMRFSELLGLTWDNVDFEKGQIYVKRTWDIYKNNFAPTKNDQSVRFLAIDSSTMQVMINYKEQQEKLLKRLEIEPEHPFVFYNIKNGLITNNSLNKQLRNMCKKLGFKKIITCHGLRHTHASTMLYKGINILYVSKRLGHSSLNVTMSVYSHILKLEHHHHHH | not soluble |
| MKSEANLRGMIDIEFYYHTCEAKKYFRNEVINYLVNLKSNVTIEMTRYWTEGADVVNHLFFCNIHGIGIPNLHGVLFQVKSYRYYSGFLLSTASQSFCG | not soluble |
| MKSFKEQYTLDERLAESREIIAKYPTRIPVIAEKYCKTDLPAIEKKKFLVPRDMSVGQFIYILSARLHLSPGKALFVFVNNTLPQTAALMDSVYESYKDDDGFVYMCYSSEKTFG | not soluble |
| MKSHVTDLTETLSSMEISRLEQQLTDFEAKKGSQIALLIIPTTQPETIEQYSIQVAEVWKLGRKGIDDGVLLLVAKNDRTLRIETGYGLEGVLPDALARRIIDEIIVPKFRQGHFFGGLQAGVEQIISIIEGETLPESLEHHHHHH | not soluble |
| MKSLEEILQYNEKFVEEKKYEEFVAGKFPNKKMVIISCMDTRLVELLPKAMNMRNGDVKIIKVAGAVISHPFGSIMRSILVAVYELGADEVCVVGHHDCGMAKIQASSTIEKMKERGITEEKLDMLRYSGIDLEQFLRGFSSVEESVEHSVSVLRNHPLLPEEVPVHGLVIDPDTGKLDLVVNGYDN | not soluble |
| MKSPQAQQILDQARRLLYEKAMVKINGQYVGTVAAIPQSDHHDLNYTEVFIRDNVPVMIFLLLQNETEIVQNFLEICLTLQSKGFPTYGIFPTSFVETENHELKADYGQRAIGRVCSVDASLWWPILAYYYVQRTGNEAWARQTHVQLGLQKFLNLILHPVFRDAPTLFVPDGAFMIDRPMDVWGAPLEIQTLLYGALKSAAGLLLIDLKAKGYCSNKDHPFDSFTMEQSHQFNLSVDWLKKLRTYLLKHYWINCNIVQALRRRPTEQYGEEASNEHNVHTETIPNWLQDWLGDRGGYLIGNIRTGRPDFRFFSLGNCLGAIFDVTSLAQQRSFFRLVLNNQRELCAQMPLRICHPPLKDDDWRSKTGFDRKNLPWCYHNAGHWPCLFWFLVVAVLRHSCHSNYGTVEYAEMGNLIRNNYEVLLRRLPKHKWAEYFDGPTGFWVGQQSRSYQTWTIVGLLLVHHFTEVNPDDALMFDLPSLKSLHQALHLEHHHHHH | not soluble |
| MKSSPKSLKMRDNLLDGTFVVIDLEATGFDVEKSEVIDLAAVRVEGGIITEKFSTLVYPGYFIPERIKKLTGITNAMLVGQPTIEEVLPEFLEFVGDNIVVGHFVEQDIKFINKYTKQYRGKKFRNPSLCTLKLARKVFPGLKKYSLKEIAENFGFETNGVHRALKDATLTAEIFIKILEELWFKYGIGDYYSLKRLEKGKF | soluble |
| MKSVTVFLLAGTTFAIYFDGKGSRHSSSSSEEHGGHGPRPGPGGPGRGGNCSPGWLRFERQSGVWCVFVGLAGINDNSFAQKDGQSACVALGATLTGFQNDKERMAVADEAGRKLGAAGGGIAGLWLGATTRAGCKAGACGPLNTFMWTDGVTTGTAGLKWATGEPDSVDYPGTAACIQQFIMLPNWVPGPYDLEGFRTGFTHGILYKFSCIAPVTPGTRMFACGKMAAG | not soluble |
| MKSYLNLKEEVWDKETCSGCGACVSVCPTENIYFKQQSPVQFDCDECACIIVPTENGESPISAEFCKVTLYDVNCGACYNACPRTKERHIFNLEKVPGRVIENYKAKSTLETKNIQSGGVVTAILANAFDEDLIDGAIVMMEDKWTMDPKSYLATSKEDVLKTAGSRYNWNVPILEVLKEAVMVKKLNKIAVVGTPCVINAVYQMMATNNDLVEPFKKAIRLKISLFCFETFDYDKMLKKLKEVEVNPWDIKKMEIDKGKLIVSTIHGNVFNFKIDEMDEYVRKGCKVCRDFTGISSDISVGNVGTPEGYSTVLVRNKWGKGFFDRAVINGYVSVEGEASIDPVISLSKKKMERKDIEFLEHHHHHH | not soluble |
| MKSYMTQRLDEYRDGNEDKGRLLVSCPDQPGIVSAVSAFLFEHGANIIESNQYTTDPEGGRFFLRIEFDCAGIREKKSSLQAAFASVAEKFDMTWSLTLASELKRVAIFVSKNLHCLHELIWEWQTGNLMAEIAVVISNHEEARELVERLNIPFHYMKANKDIRAEVEKKQLELLEQYDVDVIVLARYMQILTPDFVSAHPNRIINIHHSFLPAFIGANPYKRAYERGVKLIGATSHYVTNDLDEGPIIEQDIKRVDHRDNAETLKNIGRTIERSVLARAVKWHLEDRVIVHENK | not soluble |
| MKTALLLVDIQNDYFPNGKMELRNPVEASEYANQLLQHFRTNSEPILHIQHVAIKDDATFFLPNTEGVHIHESVRPLREETVIVKHYPNSFRETNLLEQLKRLNIEHVVVCGMMTHMCIDATVRAAFDFGFQCTVIHDACATKDLSFKNATIPAVYIHNTILASLNGVYANVISTQEFLAT | not soluble |
| MKTEEELLNRMQAYCARTEHCRSEVAAKLRQAGTDELMIERLLQRLVEDRFIDEDRFARAYARDKYRFNGWGPKRIALELVKRHIPDSIIGSTLLDLEEGEDKIEDNLPRLLERKLRSIKDTDDRGRLHRLVRWAVGRGFEYEQVMREASRLLRKGYEEDS | not soluble |
| MKTFKAVRFQIVNEHGRIIEYELEDGVIINKEESGTGWLLEIVISNEHYETFKEYQDNEQLLDIRVVITRPANDPALFESTVKSIKNFKTTMSIVFECHIYTLRQQYAESLLEQLIDDGLSGEELKKSFNRMMQSKPKLKDEKLEE | not soluble |
